Source: US20060263381A1 (INSTITUT GUSTAVE ROUSSY, published 2006)

B1: p911Y1V9 (YVWELMTFGV) (peptide)
peptide: YVWELMTFGV
notes: It is a 10-mer, although the label says V9
B2: p248G9 (YLEYRQVPG) (peptide)
peptide: YLEYRQVPG
notes: Native peptide of MAGE-A2, -A3, -A4, -A6, -A10, -A12
B3: p248V9 (YLEYRQVPV) (peptide)
peptide: YLEYRQVPV
notes: Variant of p248G9 and p248D9 with valine at P9
B4: p174Y1V10 (YLGLSYDGLV) (peptide)
peptide: YLGLSYDGLV
notes: Variant of p174 with tyrosine at P1 and valine at P10
B5: p174 (CLGLSYDGLL) (peptide)
peptide: CLGLSYDGLL
notes: Native peptide of MAGE-A1, -A2, -A3, -A4, -A6, -A12; It is named by the position of its first residue in MAGE-A1

These binders were tested against T1, HLA-A*0201 molecule (human) (assay: T2 cell HLA-A*0201 stabilisation, flow cytometry with BB7.2).
T1 construct: MHC class I molecule on T2 cells, to which the test peptides are added from outside
Method: (§1) The cells are then analyzed by flow cytometry. […] The mean RA for each peptide is determined from at least three independent experiments. In all the experiments, 20& of the maximum fluorescence was obtained for 1 to 3 μM of the reference peptide.

Row | Binder | RA (relative affinity)
1 | B1 | 2.03 ratio to reference peptide HIVpol 589

Molecular target: T1, HLA-A*0201 molecule
Test: as above
Remark: another data set of the same source
Method: as §1

Row | Binder | RA (relative affinity)
2 | YLFLWGPRA (Variant of p262 with leucine at P2) [p262L2 (YLFLWGPRA)] | 0.2 ratio to reference peptide HIVpol 589
3 | B2 | > 27 ratio to reference peptide HIVpol 589
4 | YLEYRQVPD (Native peptide of MAGE-A1) [p248D9 (YLEYRQVPD)] | 22.5 ratio to reference peptide HIVpol 589
5 | B3 | 1.8 ratio to reference peptide HIVpol 589
6 | YLGLSYDGLL (Variant of p174 with tyrosine at P1) [p174Y1 (YLGLSYDGLL)] | 13 ratio to reference peptide HIVpol 589
7 | B4 | 2.5 ratio to reference peptide HIVpol 589
8 | B5 | 41 ratio to reference peptide HIVpol 589

The binders below were run against T1, HLA-A*0201 molecule (assay: T2 cells loaded with 100 µM peptide, Brefeldin A, flow cytometry with BB7.2 at 0-8 h).

Row | Binder | DC50 (time for loss of 50% of the complexes)
9 | YLFLWGPRA (Variant of p262 with leucine at P2) [p262L2 (YLFLWGPRA)] | 6 h
10 | B2 | < 2 h
11 | YLEYRQVPD (Native peptide of MAGE-A1) [p248D9 (YLEYRQVPD)] | < 2 h
12 | B3 | 4 h
13 | YLGLSYDGLL (Variant of p174 with tyrosine at P1) [p174Y1 (YLGLSYDGLL)] | < 2 h
14 | B4 | < 2 h
15 | B5 | < 2 h
